This passage reports binding result and activity results from patent publication US6518063, “Osf2/Cbfa1 nucleic acids and methods of use therefor” (Board of Regents, The University of Texas System).

The target of series [1] is delta.runt.PST + Cbfb heterodimer (UniProt Q08775;Q08024 Q08775:188-607,Q08024:1-187). Description: EMSA; supershifted heterodimer complex. As to conditions: tags: 6xHis (pTrcHis); chain copies: 2 (1:1 heterodimer, inferred); label: 32P. An excerpt: FIG. 18A. The QA domain prevents heterodimerization of Osf2 with Cbfβ. EMSA done with labeled double-stranded OSE2 oligonucleotide, and equivalent amounts of the Histidine-tagged wild-type and mutant proteins, in the presence or absence of Cbfβ. The nonspecific band (NS) is indicated by an arrow. Arrowheads indicate the supershifted complexes seen in lanes 4 and 10.
(§1) 5.6.1.3 Generation of Recombinant Fusion Proteins, DNA-binding Assays, and In Vitro Binding Assays For protein production, bacterial cells were induced with 2 mM IPTG, and the fusion proteins were enriched using Ni-NTA agarose resin (Qiagen Chatsworth, Calif.) as per the manufacturer's guidelines. DNA-binding assays were performed with 5 fmol of ^32P-labeled double-stranded OSE2 oligonucleotides, in a buffer containing 20 mM Tris-HCl, pH 8.0, 10 mM NaCl, 3 mM EGTA, 0.05% NP-40, 5 mM DTT, and 2 μg of poly (dI.dC).poly (dI.dC), with equivalent amounts of wild type or mutant proteins. […] The proteins were checked for purity and quantified before use. ^35S-labeled Osf2 and Cbfa2 were synthesized in rabbit reticulocyte lysate using coupled in vitro transcription and translation (TNT kit, Promega). Typically, 100 ng of fusion protein bound to glutathione-agarose beads was used for each assay, while the amount of labeled protein in the assay was determined using fluorography. […]

Another series has as its target OSF2/CBFA1a (Homo sapiens, UniProt Q13950 SEQ:1-521). Description: cell_activity; p6OSE2-luc, F9 cells. As to conditions: tags: pCMV expression. The procedure: FIG. 8B. F9 mouse teratocarcinoma cells were transiently transfected with 5 μg of the reporter plasmid in presence of 5 μg of the indicated expression vector. Values are expressed relative to the basal activity of p6OSE2-luc which was set at 1. Data represent results from 3 independent transfection studies.
The mouse F9 teratocarcinoma cell line was used for the DNA transfection studies. The cells were plated on 10-cm dishes at a density of 5×10^5 cells/dish. Cells were transfected by the calcium phosphate coprecipitation method (Chen and Okayama, 1987), using 5 μg of reporter plasmid, 5 μg of expression plasmid and 2 μg of pRSV/βGal as previously described (Geoffroy et al., 1995). The p6OSE2-luc plasmid containing six copies of the wild-type OSE2 oligonucleotide in front of the −34/+13 mOG2 promoter-luciferase (luc) was used as reporter plasmid (Ducy and Karsenty, 1995). The pCMV-hOSF2/CBFA1a and pCMV-hOSF2/CBFA1b were used as expression plasmids. They contain respectively the full length hOSF2/CBFA1a cDNA and the hOSF2/CBFA1b cDNA lacking exon 8 in correct orientation downstream from the CMV promoter. Luciferase and β-galactosidase activities were assayed as previously described (Geoffroy et at, 1995). […]

In series [2] the target is His-Cbfa2 + His-Cbfb heterodimer (UniProt Q03347;Q08024 Q03347:1-451,Q08024:1-187). Description: EMSA; slower heterodimer complex. As to conditions: tags: 6xHis on each (pTrcHis); chain copies: 2 (1:1 heterodimer, inferred); label: 32P. Here is the method: as §1
(§2) Since Cbfβ is also expressed in osteoblasts, the inventors tested if Cbfβ was also a partner for Osf2 using an electrophoretic mobility shift assay (EMSA). […] In contrast, when using His-Cbfa2 protein as a positive control, the inventors always detected heterodimerization with Cbfβ, resulting in a protein-DNA complex of slower mobility (FIG. 18A, compare lanes 3 and 4). […]

Series [3] addresses T1, Osf2/Cbfa1 (Mus musculus, UniProt Q08775 SEQ:1-528). The experiment in a line: cell_activity; p6OSE2-luc (6 copies), F9 cells. As to conditions: tags: pCMV5 expression. The procedure: After transfection the cells were washed twice with PBS (150 mM NaCl, 10 mM sodium phosphate [pH 7.2]), and regular medium was added for 24 h. Cells were harvested and lysed by three cycles of freeze-thawing. β-galactosidase activities present in each lysate, measured by a colorimetric enzyme assay (Ausubel et al., 1997) using resorufin β-D-galactopyranoside (Boehringer Mannheim) as a substrate, were used to normalize the transfection efficiency between different studies. DNA cotransfections (Ausubel et al., 1997) were performed in duplicates and repeated at least four times with quantitatively and qualitatively similar results. Luciferase activities were assayed using a Monolight 2010 luminometer (Analytical Luminescence Laboratory, San Diego, Calif.) and D-luciferin substrate (Analytical Luminescence Laboratory) in 100 mM Tris-HCl [pH 7.8], 5 mM ATP, 15 mM MgSO_4, 1 mM dithiothreitol (DTT). For overexpression studies, expression plasmids were transfected for 4 h with Lipofectamin (GIBCO) following the manufacturer's instructions. RNA were harvested 40 h after transfection. […]
The transcriptional activity of Osf2/Cbfa1 was assessed by DNA cotransfection studies. […]

For a further series, the target named is His-Cbfa2 (Mus musculus, UniProt Q03347 SEQ:1-451). Description: EMSA. As to conditions: tags: 6xHis (pTrcHis); label: 32P. The procedure: as §1, §2
Series [4] concerns the target T1, Osf2/Cbfa1. The experiment in a line: cell_activity; p910-Opn-luc promoter fragment, F9 cells; deletion of element abolished. As to conditions: tags: pCMV5 expression.

T1 sequence (Q08775 80-607): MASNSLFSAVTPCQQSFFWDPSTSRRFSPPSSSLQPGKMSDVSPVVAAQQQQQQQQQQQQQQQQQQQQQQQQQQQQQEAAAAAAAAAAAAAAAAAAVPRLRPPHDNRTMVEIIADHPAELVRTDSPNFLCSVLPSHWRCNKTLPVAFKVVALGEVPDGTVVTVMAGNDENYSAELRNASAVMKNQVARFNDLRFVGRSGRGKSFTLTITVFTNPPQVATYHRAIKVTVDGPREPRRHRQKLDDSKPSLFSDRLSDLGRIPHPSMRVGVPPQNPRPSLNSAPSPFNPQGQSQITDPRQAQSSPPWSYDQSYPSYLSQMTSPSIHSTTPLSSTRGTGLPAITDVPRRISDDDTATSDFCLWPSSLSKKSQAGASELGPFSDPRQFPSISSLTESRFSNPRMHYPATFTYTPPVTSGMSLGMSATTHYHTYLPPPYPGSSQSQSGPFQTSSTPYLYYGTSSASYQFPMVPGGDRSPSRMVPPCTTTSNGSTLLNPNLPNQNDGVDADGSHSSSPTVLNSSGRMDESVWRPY
Sequence of His-Cbfa2 (Q03347 whole entry, the tested form may be a part): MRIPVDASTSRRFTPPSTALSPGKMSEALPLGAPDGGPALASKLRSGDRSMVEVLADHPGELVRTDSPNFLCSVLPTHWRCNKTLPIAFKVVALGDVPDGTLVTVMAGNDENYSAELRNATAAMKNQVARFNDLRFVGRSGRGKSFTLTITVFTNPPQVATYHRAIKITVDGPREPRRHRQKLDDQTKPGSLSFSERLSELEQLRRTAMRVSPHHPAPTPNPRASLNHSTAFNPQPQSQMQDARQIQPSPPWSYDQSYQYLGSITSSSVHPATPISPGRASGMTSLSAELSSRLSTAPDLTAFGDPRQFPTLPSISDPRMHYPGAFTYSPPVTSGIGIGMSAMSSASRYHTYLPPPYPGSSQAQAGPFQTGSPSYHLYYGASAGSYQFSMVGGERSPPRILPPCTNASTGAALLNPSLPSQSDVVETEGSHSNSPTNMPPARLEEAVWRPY
Sequence of His-Cbfa2 + His-Cbfb heterodimer (Q03347 whole entry, chain 1 of 2): as the sequence (Q03347 whole entry, the tested form may be a part) above
Sequence of His-Cbfa2 + His-Cbfb heterodimer (Q08024 whole entry, chain 2 of 2): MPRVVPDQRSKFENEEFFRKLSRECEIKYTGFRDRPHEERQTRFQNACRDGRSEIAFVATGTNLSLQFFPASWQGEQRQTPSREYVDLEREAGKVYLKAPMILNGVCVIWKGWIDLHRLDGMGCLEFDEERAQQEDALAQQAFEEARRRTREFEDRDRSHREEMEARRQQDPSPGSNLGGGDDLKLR
Sequence of OSF2/CBFA1a (Q13950 whole entry P266H/R267G): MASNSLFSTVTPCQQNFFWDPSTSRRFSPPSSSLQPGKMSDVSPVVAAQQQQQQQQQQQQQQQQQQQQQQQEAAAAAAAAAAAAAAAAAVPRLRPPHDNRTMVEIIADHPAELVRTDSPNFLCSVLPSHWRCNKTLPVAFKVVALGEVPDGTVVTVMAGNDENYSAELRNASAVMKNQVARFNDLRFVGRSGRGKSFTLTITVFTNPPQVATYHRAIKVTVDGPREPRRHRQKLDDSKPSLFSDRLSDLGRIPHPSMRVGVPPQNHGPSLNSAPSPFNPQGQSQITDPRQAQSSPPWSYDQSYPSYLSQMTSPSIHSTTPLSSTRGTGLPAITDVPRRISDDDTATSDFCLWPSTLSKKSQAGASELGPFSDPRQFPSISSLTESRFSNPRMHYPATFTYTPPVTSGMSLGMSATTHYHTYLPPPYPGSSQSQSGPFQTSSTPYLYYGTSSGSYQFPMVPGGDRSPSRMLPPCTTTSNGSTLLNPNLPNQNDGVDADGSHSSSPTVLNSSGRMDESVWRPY
Sequence of delta.runt.PST + Cbfb heterodimer (Q08775 188-607, stated change not applied, chain 1 of 2): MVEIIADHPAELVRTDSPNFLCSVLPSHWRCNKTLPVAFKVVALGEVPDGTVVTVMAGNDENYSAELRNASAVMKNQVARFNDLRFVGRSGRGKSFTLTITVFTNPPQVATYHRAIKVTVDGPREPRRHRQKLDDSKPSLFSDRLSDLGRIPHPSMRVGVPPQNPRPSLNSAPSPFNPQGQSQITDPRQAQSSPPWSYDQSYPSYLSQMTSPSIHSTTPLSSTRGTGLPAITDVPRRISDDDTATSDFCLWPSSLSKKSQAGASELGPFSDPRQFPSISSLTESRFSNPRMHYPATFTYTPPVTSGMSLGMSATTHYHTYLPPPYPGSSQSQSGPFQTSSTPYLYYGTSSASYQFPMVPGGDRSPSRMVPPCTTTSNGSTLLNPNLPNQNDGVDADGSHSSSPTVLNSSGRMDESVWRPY
Sequence of delta.runt.PST + Cbfb heterodimer (Q08024 whole entry, stated change not applied, chain 2 of 2, the tested form may be a part): as the sequence (Q08024 whole entry, chain 2 of 2) above

B1: Osteocalcin (OG2) OSE2 (dsDNA)
DNA 1: AGCTGCAATCACCAACCACAGCA
DNA 2: TGCTGTGGTTGGTGATTGCAGCT
Take B1: the binding result (in series [1]; in series [2]; with His-Cbfa2) was “binds” throughout. The activity in the series with OSF2/CBFA1a is 75 fold activation; in the series with Osf2/Cbfa1 [3], more than 70 fold activation.

B2: Osteopontin OSE2 (dsDNA)
DNA 1: CGCTCTTTGTGCAAACCACACAG
DNA 2: CTGTGTGGTTTGCACAAAGAGCG
In the series with Osf2/Cbfa1 [4], B2 yielded an activity of 4 fold activation.
